Earlier results, collected in publication PMC5744648.
pKd: −log10 of the molar value. One block for each substance: values may come before it.

Assays:
[1] = target: CMKLR1 (Chemerin1) (Mus musculus) (UniProt P97468); assay: radioligand binding
[2] = target: CMKLR1 (Chemerin1) (Homo sapiens) (UniProt Q99788); assay: radioligand
[3] = target: GPR1 (Chemerin2) (Homo sapiens) (UniProt P46091); assay: radioligand binding
[4] = target: GPR1 (Chemerin2) (Homo sapiens) (UniProt P46091); assay: radioligand

Chain of CMKLR1 (Chemerin1) (Homo sapiens) (Q99788 whole entry): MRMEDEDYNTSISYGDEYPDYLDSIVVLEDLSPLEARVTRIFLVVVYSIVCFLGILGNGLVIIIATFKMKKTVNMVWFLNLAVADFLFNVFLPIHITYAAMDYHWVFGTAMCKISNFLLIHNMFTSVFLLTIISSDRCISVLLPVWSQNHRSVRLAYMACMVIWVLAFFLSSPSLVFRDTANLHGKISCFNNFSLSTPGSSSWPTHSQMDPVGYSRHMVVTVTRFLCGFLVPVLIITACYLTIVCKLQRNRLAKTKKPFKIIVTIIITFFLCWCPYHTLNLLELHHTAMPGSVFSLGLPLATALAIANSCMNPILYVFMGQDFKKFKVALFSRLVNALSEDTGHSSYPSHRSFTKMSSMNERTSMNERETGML
Chain of Chemerin 21-157 (Q99969 21-157): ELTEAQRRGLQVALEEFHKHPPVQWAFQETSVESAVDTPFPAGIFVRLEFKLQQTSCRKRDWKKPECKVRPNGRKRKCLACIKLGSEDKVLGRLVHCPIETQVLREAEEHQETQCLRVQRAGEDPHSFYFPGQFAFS
Chain of GPR1 (Chemerin2) (Homo sapiens) (P46091 whole entry): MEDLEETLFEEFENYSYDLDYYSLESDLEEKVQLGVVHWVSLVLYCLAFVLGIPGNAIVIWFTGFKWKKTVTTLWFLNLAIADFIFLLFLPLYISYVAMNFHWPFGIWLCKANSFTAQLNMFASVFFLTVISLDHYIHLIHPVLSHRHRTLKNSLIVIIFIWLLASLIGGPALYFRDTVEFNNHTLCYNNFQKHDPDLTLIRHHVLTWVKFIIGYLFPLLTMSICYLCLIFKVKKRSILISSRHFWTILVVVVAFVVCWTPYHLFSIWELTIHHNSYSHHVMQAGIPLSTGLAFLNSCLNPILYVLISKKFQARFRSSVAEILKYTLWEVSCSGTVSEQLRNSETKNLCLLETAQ
Chain of CMKLR1 (Chemerin1) (Mus musculus) (P97468 whole entry): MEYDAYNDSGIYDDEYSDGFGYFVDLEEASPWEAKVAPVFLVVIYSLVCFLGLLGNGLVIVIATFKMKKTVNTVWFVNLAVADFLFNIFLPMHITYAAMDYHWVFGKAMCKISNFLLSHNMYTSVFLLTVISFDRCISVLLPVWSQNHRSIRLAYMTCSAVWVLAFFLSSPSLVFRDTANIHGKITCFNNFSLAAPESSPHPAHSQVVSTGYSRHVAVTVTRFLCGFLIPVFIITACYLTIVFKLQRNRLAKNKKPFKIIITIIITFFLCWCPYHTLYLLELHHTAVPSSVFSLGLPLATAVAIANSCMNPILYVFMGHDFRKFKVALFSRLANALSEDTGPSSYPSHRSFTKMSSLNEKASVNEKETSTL
Chain of Chemerin C9 peptide 149-157 (Q99969 whole entry, looked up, tested part not stated): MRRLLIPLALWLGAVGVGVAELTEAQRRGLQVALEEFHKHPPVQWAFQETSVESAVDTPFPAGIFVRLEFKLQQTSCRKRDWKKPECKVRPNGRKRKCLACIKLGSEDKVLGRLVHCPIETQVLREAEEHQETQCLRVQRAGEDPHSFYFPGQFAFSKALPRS
Chain of Chemerin 21-148 (Q99969 21-148): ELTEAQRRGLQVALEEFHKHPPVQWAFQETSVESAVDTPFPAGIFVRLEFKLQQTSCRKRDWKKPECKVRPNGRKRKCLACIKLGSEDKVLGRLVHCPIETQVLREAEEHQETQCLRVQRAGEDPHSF

pKd [1]: 8.92
Substance: Chemerin 21-148 (from UniProt Q99969)

pKd [2]: 9.06
pKd [3]: 9.68
Substance: Chemerin 21-157 (from UniProt Q99969)

pKd [4]: 8.28
Substance: Chemerin C9 peptide 149-157 (from UniProt Q99969)

pKd [2]: 7.66
Substance: Tyr-[Phe149]-chemerin146-157 146-157 (from UniProt Q99969)
